Laboratory results: patent publication US20060040861A1, “Method of treating, preventing, and diagnosing prostate cancer” (priority 2004, published 2006)

B1: f-adiponectin: Recombinant human full-length (non-proteolytic) adiponectin, about 30-kDa polypeptide; lot mainly HMW form (protein, UniProt Q15848 1-244, looked up)
chain: MLLLGAVLLLLALPGHDQETTTQGPGVLLPLPKGACTGWMAGIPGHPGHNGAPGRDGRDGTPGEKGEKGDPGLIGPKGDIGETGVPGAEGPRGFPGIQGRKGEPGEGAYVYRSAFSVGLETYVTIPNMPIRFTKIFYNQQNHYDGSTGKFHCNIPGLYYFAYHITVYMKDVKVSLFKKDKAMLFTYDQYQENNVDQASGSVLLHLEVGDQVWLQVYGEGERNGLYADNDNDSTFTGFLLYHDTN
modifications: full-length
notes: Recombinant human full-length (non-proteolytic) adiponectin, about 30-kDa polypeptide; lot mainly HMW form

Tests used:
DU145 cells = assay: MTT assay (cell growth / viability); assay type: cell-based, human; settings: 5 days
Method: DU145 (1×10^3/well), PC-3 (1×10^3/well) and LNCaP-FGC (1.5×10^3/well) cells were seeded in 96-well plates 24 hours prior to serum starvation. Cells were starved of serum for 24 hours and then incubated in the serum-free medium with or without 12.5 μg/ml leptin for 5 days. 3-(4,5-dimethylthiazol-2-yl)-2,5-diphenyl tetrazolium bromide (MTT) was added to each well to a concentration of 0.5 mg/ml. After 3-hour incubation at 37° C., cells were lysed in 50% dimethylformamide and 20% SDS at 37° C. Optical densities (O.D.) at 550 nm and 670 nm were measured by a plate reader, and differential O.D. between 550 nm and 670 nm (O.D. 550 nm minus O.D. 670 nm) were determined. Each experiment was performed in quadruplicate, and the values are reported as mean±SD.
DU145 (0.5-1.0×10^3/well), PC-3 (0.5-1.0×10^3/well), and LNCaP FGC (0.75-1.5×10^3/well) cells were seeded in 96-well plates 24 hours prior to serum starvation. Cells were starved of serum for 24 hours and then incubated in the serum-free medium with or without cytokine(s), DHT and/or doxorubicin at indicated concentrations for 5 days. MTT was added to each well to a concentration of 0.5 mg/ml. After being incubated at 37° C. for 3 hours, cells were lysed in 50% dimethylformamide and 20% SDS at 37° C. Optical densities (OD) at 550 and 670 nm were measured by a plate reader, and differential OD between 550 and 670 nm (OD 550 minus OD 670 nm) were determined. Each experiment was performed in quadruplicate, and the values were reported as mean±S.D.
Sucrose gradients were set up in 2.2-ml centrifuge tubes (Beckman Coulter, Inc., Fullerton, Calif.) by layering 5, 10, 15 and 20% (w/v) sucrose in velocity sedimentation buffer (10 mM HEPES, pH 8; 125 mM NaCl). Gradients were then equilibrated overnight at 4° C. Twenty micrograms of f-adiponectin in 200 μl of velocity sedimentation buffer containing 5 μl of HMW-Native protein marker kit (GE Healthcare, Piscataway, N.J.) set to 0.5 μg/μl albumin was overlayed onto the sucrose gradients and spun in a Beckman TLS-55 rotor at 55,000 rpm for 5 hours at 4° C. Fractions (150 μl each) were sequentially collected from the top to the bottom; aliquots were removed and used immediately in the MTT assay. The remaining material was stored at −80° C. for Western blot analysis with anti-adiponectin antibody and SDS-PAGE with silver staining. For the MTT assay, DU145 cells (0.5×1 03/well) were serum-starved and incubated in triplicate in 60 μl of the serum-free medium plus 30 μl of each fraction. For Western blot analysis, 0.5 μl of each fraction was electrophoresed on a 10% SDS-polyacrylamide gel and electrotransferred to a polyvinylidene difluoride membrane. The membrane was washed, blocked, and hybridized with the anti-adiponectin antibody. Bands were visualized using a Lumiglo reagent (Cell Signaling Technology, Inc., Beverly, Mass.). For SDS-PAGE, 20 μl of each fraction was electrophoresed on a 10% SDS-polyacrylamide gel, followed by silver staining using the Silver Stain kit (Bio-Rad Laboratories, Inc., Hercules, Calif.) to visualize molecular weight markers.

c-Jun = assay: Western blot analysis of c-Jun phosphorylation in human cancer cells; assay type: cell-based
Method: Eighty-percent confluent prostate cancer cells were starved in the serum-free medium for 24 hours and then treated by 12.5 μg/ml leptin or 10 μg/ml anisomycin for the indicated periods. In some experiments, cells were pretreated with SP600125 prior to cytokine stimulation as described below. Cells were washed twice with cold PBS, harvested by a scraper and centrifuged for 10 minutes at 700×g at 4° C. The pellet was homogenized in the cell lysis buffer (20 mM HEPES, pH 7.9, 300 mM NaCl, 1 mM EDTA, 15% glycerol, 0.5% NP-40, 1 mM Na3VO4, 1 μg/ml leupeptin, 5 μg/ml aprotinin, 1 μg/ml pepstatin and 1 mM PMSF) and incubated at 4° C. with gentle rocking for 30 minutes. This homogenate was centrifuged for 5 minutes at 15,000×g, and the supernatant was saved as a cell lysate and stored at −80° C. until use.
Cell lysates containing 100 μg of protein were electrophoresed on 10% SDS-polyacrylamide gels and electrotransferred to PVDF membranes. Following the supplier's instructions, the membranes were washed, blocked and hybridized with anti-phospho-c-Jun (Ser-63 or Ser-73) polyclonal antibody that specifically recognizes a phosphorylated form of c-Jun. Bands were visualized using a Lumiglo reagent (Cell Signaling Technology Inc.). The membranes were then stripped and re-hybridized with anti-c-Jun antibody that detects both phosphorylated and unphosphorylated forms to normalize sample variations.
SP600125 was dissolved in DMSO to make a stock solution. Eighty-percent confluent prostate cancer cells were serum-starved for 24 hours and pretreated with SP600125 at indicated concentrations for 30 minutes, followed by leptin treatment (12.5 μg/ml): 15 minutes for Western blot analysis or 20 hours for thymidine incorporation assays. DMSO-treated cells were employed as controls.
Seventy-percent confluent cells were deprived of serum for 24 hours, followed by treatment with 1 μg/ml f- or g-adiponectin or 10 μg/ml anisomycin for indicated periods. After being rinsed with cold phosphate-buffered saline, cells were harvested using a scraper and collected by centrifugation at 700×g for 10 minutes at 4° C. The cell pellets were then homogenized in cell lysis buffer (20 mM HEPES, pH 7.9, 300 mM NaCl, 1 mM Na3VO4, 1 μg/ml leupeptin, 5 μg/ml aprotinin, 1 μg/ml pepstatin, and 1 mM phenylmethylsulfonyl fluoride) and rocked gently for 30 minutes at 4° C. The homogenates were centrifuged at 15,000×g for 5 minutes at 4° C., and the supernatants were saved as cell lysates and stored at −80° C. until use.
Cell lysates (100 μg of protein) were electrophoresed on 10% SDS-polyacrylamide gels and transferred to polyvinylidene difluoride membranes. […]

Row | Molecule | cell growth (MTT), leptin together with IGF-I (DU145 cells; 12.5 μg/ml leptin and 100 ng/ml IGF-I, absence of androgen) | living cells (MTT) (DU145 cells; 12.5 μg/ml leptin, serum-free) | c-Jun phosphorylation on Ser-63 and Ser-73 (c-Jun; DU145 and PC-3 cells, 12.5 μg/ml leptin) | effect on the leptin and/or IGF-I stimulation of cell growth (MTT) (DU145 cells; 1 μg/ml f-adiponectin, 12.5 μg/ml leptin and/or 100 ng/ml IGF-I) | effect on the conditioned medium stimulation of cell growth (MTT) (DU145 cells; 1 μg/ml f-adiponectin) | effect on the doxorubicin suppression of cell growth (MTT) (DU145 cells; 1 μg/ml f-adiponectin) | cell growth (MTT) at concentrations up to 1 μg/ml (DU145 cells; serum-free) | concentration at which the inhibitory effect on cell growth saturated (DU145 cells; MTT) | c-Jun phosphorylation at Ser-63 (c-Jun; DU145, PC-3, LNCaP-FGC and HepG2 cells, 1.0 μg/ml) | c-Jun phosphorylation at Ser-73 (c-Jun; DU145, PC-3 and HepG2 cells, 1.0 μg/ml) | c-Jun phosphorylation at Ser-73 (c-Jun; LNCaP-FGC cells, 1.0 μg/ml)
1 | leptin: Recombinant human leptin purchased from R&D Systems; major adipose cytokine | stimulated cell growth synergistically | increased living cells | stimulated c-Jun phosphorylation |  |  |  |  |  |  |  | 
2 | B1 |  |  |  | remarkably suppressed | drastically suppressed | enhanced the doxorubicin suppression | inhibited cell growth in a dose-dependent manner | 1 µg/mL | augmented c-Jun phosphorylation at Ser-63 | stimulated Ser-73 phosphorylation | quite modest
